The values that follow come from patent publication US20240024432A1 (DENALI THERAPEUTICS, published 2024).

For experiment [1], the target named is T1, human transferrin receptor (TfR) ectodomain (ECD) (human, UniProt P02786 121-760, biotinylated where captured on streptavidin).
T1 construct: also called human TfR; huTfR; not shown: C-terminal cleavable His- and Avi-tags
Kind of experiment: yeast surface display flow cytometry; yeast-displayed clone stained with 250 nM biotinylated human TfR, neutravidin-AF647; median fluorescence intensity. As to the method: (§1) For each clone, two million cells were washed three times in PBS+0.5% BSA at pH 7.4. […] Cells were stained with nuetravidin-Alexafluor647 (AF647) for 30 minutes at 4° C., then washed twice again. Expression was measured using anti-c-myc antibody with anti-chicken-Alexfluor488 (AF488) secondary antibody. Cells were resuspended, and median fluorescence intensity (MFI) of AF647 and AF488 was measured on a BD FACS CantoII. MFI was calculated for the TfR-binding population for each population and plotted with human TfR, cyno TfR, or control binding (FIG. 44).

The target of experiment [2] is T2, cynomolgus transferrin receptor (TfR) ectodomain (ECD) (cynomolgus, UniProt Q5RDH6 121-760 (Pongo abelii entry), biotinylated where captured on streptavidin).
T2 construct: also called cyno TfR; cynoTfR; not shown: C-terminal cleavable His- and Avi-tags
T2 chain: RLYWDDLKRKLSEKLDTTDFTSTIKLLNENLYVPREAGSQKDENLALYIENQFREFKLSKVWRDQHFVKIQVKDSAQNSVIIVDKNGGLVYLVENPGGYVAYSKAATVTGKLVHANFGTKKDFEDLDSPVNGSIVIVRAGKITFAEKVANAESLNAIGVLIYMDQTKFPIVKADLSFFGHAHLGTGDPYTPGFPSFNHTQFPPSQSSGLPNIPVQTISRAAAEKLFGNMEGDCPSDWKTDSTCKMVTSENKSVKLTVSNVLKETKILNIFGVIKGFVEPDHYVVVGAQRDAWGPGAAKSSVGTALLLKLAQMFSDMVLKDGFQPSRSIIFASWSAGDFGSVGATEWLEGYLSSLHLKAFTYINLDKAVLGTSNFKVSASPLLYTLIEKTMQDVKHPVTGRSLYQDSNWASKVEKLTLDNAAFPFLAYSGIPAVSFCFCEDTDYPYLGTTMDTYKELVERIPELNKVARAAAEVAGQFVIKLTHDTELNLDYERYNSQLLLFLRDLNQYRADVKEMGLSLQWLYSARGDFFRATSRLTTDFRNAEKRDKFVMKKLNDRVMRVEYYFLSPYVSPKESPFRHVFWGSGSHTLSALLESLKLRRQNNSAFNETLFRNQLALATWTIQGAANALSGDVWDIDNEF
Kind of experiment: yeast surface display flow cytometry; yeast-displayed clone stained with 250 nM biotinylated cyno TfR, neutravidin-AF647; median fluorescence intensity. As to the method: as §1
A general note: A flow cytometer gives signals particle by particle.

B1: 3.2-14 (designed binder)
modified Fc polypeptide displayed on yeast (c-Myc tagged): PCPAPELLGGPSVFLFPPKPKDTLMISRTPEVTCVVVDVSHEDPEVKFNWYVDGVEVHNAKTKPREEQYNSTYRVVSVLTVLHQDWLNGKEYKCKVSNKALPAPIEKTISKAKGQPREPQVYTLPPSRDELTKNQVSLTCLVKGFYPSDIAVEWESLGHVWVGVKTTPPVLDSDGSFFLYSKLTVPKSTWQQGWVFSCSVMHEALHNHYTQKSLSLSPGK
notes: also called CH3C.3.2-14
As for B1, the binding result in experiment [1] and in experiment [2] was “binds” each time.

B2: 3.1-3 (designed binder)
modified Fc polypeptide displayed on yeast (c-Myc tagged): PCPAPELLGGPSVFLFPPKPKDTLMISRTPEVTCVVVDVSHEDPEVKFNWYVDGVEVHNAKTKPREEQYNSTYRVVSVLTVLHQDWLNGKEYKCKVSNKALPAPIEKTISKAKGQPREPQVYTLPPSRDELTKNQVSLTCLVKGFYPSDIAVEWESLGHVWVATKTTPPVLDSDGSFFLYSKLTVPKSTWQQGWVFSCSVMHEALHNHYTQKSLSLSPGK
notes: also called CH3C.3.1-3
In the case of B2, the binding result in experiment [1] and in experiment [2] was “binds” each time.

B3: 3.2-3 (designed binder)
modified Fc polypeptide displayed on yeast (c-Myc tagged): PCPAPELLGGPSVFLFPPKPKDTLMISRTPEVTCVVVDVSHEDPEVKFNWYVDGVEVHNAKTKPREEQYNSTYRVVSVLTVLHQDWLNGKEYKCKVSNKALPAPIEKTISKAKGQPREPQVYTLPPSRDELTKNQVSLTCLVKGFYPSDIAVEWESLGHVWVEQKTTPPVLDSDGSFFLYSKLTVPKSTWQQGWVFSCSVMHEALHNHYTQKSLSLSPGK
notes: also called CH3C.3.2-3
As to B3, the binding result in experiment [1] and in experiment [2] was “binds” each time.

B4: 3.4-26 (designed binder)
modified Fc polypeptide displayed on yeast (c-Myc tagged): PCPAPELLGGPSVFLFPPKPKDTLMISRTPEVTCVVVDVSHEDPEVKFNWYVDGVEVHNAKTKPREEQYNSTYRVVSVLTVLHQDWLNGKEYKCKVSNKALPAPIEKTISKAKGQPREPQVYTLPPSRDELTKNQVSLTCLVKGFYPSDIAVEWESWGTVWGTYKTTPPVLDSDGSFFLYSKLTVPKSNWQQGYVFSCSVMHEALHNHYTQKSLSLSPGK
notes: also called CH3C.3.4-26
B4: the binding result in experiment [1] and in experiment [2] was “binds” throughout.

B5: 3.4-1 (designed binder)
modified Fc polypeptide displayed on yeast (c-Myc tagged): PCPAPELLGGPSVFLFPPKPKDTLMISRTPEVTCVVVDVSHEDPEVKFNWYVDGVEVHNAKTKPREEQYNSTYRVVSVLTVLHQDWLNGKEYKCKVSNKALPAPIEKTISKAKGQPREPQVYTLPPSRDELTKNQVSLTCLVKGFYPSDIAVEWESWGFVWSTYKTTPPVLDSDGSFFLYSKLTVPKSNWQQGFVFSCSVMHEALHNHYTQKSLSLSPGK
notes: also called CH3C.3.4-1
As for B5, the binding result in experiment [1] and in experiment [2] was “binds” throughout.

B6: 3.2-17 (designed binder)
modified Fc polypeptide displayed on yeast (c-Myc tagged): PCPAPELLGGPSVFLFPPKPKDTLMISRTPEVTCVVVDVSHEDPEVKFNWYVDGVEVHNAKTKPREEQYNSTYRVVSVLTVLHQDWLNGKEYKCKVSNKALPAPIEKTISKAKGQPREPQVYTLPPSRDELTKNQVSLTCLVKGFYPSDIAVEWESLGHVWVGTKTTPPVLDSDGSFFLYSKLTVPKSTWQQGWVFSCSVMHEALHNHYTQKSLSLSPGK
notes: also called CH3C.3.2-17
Consider B6, for which the binding result in experiment [1] and in experiment [2] was “binds” throughout.

B7: 3.4-19 (designed binder)
modified Fc polypeptide displayed on yeast (c-Myc tagged): PCPAPELLGGPSVFLFPPKPKDTLMISRTPEVTCVVVDVSHEDPEVKFNWYVDGVEVHNAKTKPREEQYNSTYRVVSVLTVLHQDWLNGKEYKCKVSNKALPAPIEKTISKAKGQPREPQVYTLPPSRDELTKNQVSLTCLVKGFYPSDIAVEWESWGHVWSTYKTTPPVLDSDGSFFLYSKLTVPKSNWQQGYVFSCSVMHEALHNHYTQKSLSLSPGK
notes: also called CH3C.3.4-19
Regarding B7, the binding result in experiment [1] and in experiment [2] was “binds” throughout.

B8: 3.2-24 (designed binder)
modified Fc polypeptide displayed on yeast (c-Myc tagged): PCPAPELLGGPSVFLFPPKPKDTLMISRTPEVTCVVVDVSHEDPEVKFNWYVDGVEVHNAKTKPREEQYNSTYRVVSVLTVLHQDWLNGKEYKCKVSNKALPAPIEKTISKAKGQPREPQVYTLPPSRDELTKNQVSLTCLVKGFYPSDIAVEWESLGHVWVHTKTTPPVLDSDGSFFLYSKLTVPKSTWQQGWVFSCSVMHEALHNHYTQKSLSLSPGK
notes: also called CH3C.3.2-24
For B8, the binding result in experiment [1] and in experiment [2] was “binds” in each case.

B9: 3.2-5 (designed binder)
modified Fc polypeptide displayed on yeast (c-Myc tagged): PCPAPELLGGPSVFLFPPKPKDTLMISRTPEVTCVVVDVSHEDPEVKFNWYVDGVEVHNAKTKPREEQYNSTYRVVSVLTVLHQDWLNGKEYKCKVSNKALPAPIEKTISKAKGQPREPQVYTLPPSRDELTKNQVSLTCLVKGFYPSDIAVEWESLGHVWVDQKTTPPVLDSDGSFFLYSKLTVPKSTWQQGWVFSCSVMHEALHNHYTQKSLSLSPGK
notes: also called CH3C.3.2-5
Consider B9, for which the binding result in experiment [1] and in experiment [2] was “binds” in each case.

B10: 3.2-19 (designed binder)
modified Fc polypeptide displayed on yeast (c-Myc tagged): PCPAPELLGGPSVFLFPPKPKDTLMISRTPEVTCVVVDVSHEDPEVKFNWYVDGVEVHNAKTKPREEQYNSTYRVVSVLTVLHQDWLNGKEYKCKVSNKALPAPIEKTISKAKGQPREPQVYTLPPSRDELTKNQVSLTCLVKGFYPSDIAVEWESLGHVWVNQKTTPPVLDSDGSFFLYSKLTVPKSTWQQGWVFSCSVMHEALHNHYTQKSLSLSPGK
notes: also called CH3C.3.2-19
Consider B10, for which the binding result in experiment [1] and in experiment [2] was “binds” in each case.

B11: 3.2-1 (designed binder)
modified Fc polypeptide displayed on yeast (c-Myc tagged): PCPAPELLGGPSVFLFPPKPKDTLMISRTPEVTCVVVDVSHEDPEVKFNWYVDGVEVHNAKTKPREEQYNSTYRVVSVLTVLHQDWLNGKEYKCKVSNKALPAPIEKTISKAKGQPREPQVYTLPPSRDELTKNQVSLTCLVKGFYPSDIAVEWESLGHVWVNFKTTPPVLDSDGSFFLYSKLTVPKSTWQQGWVFSCSVMHEALHNHYTQKSLSLSPGK
notes: also called CH3C.3.2-1
Turning to B11, the binding result in experiment [1] and in experiment [2] was “binds” each time.

B12: CH3C.35 (designed binder)
modified Fc polypeptide displayed on yeast (c-Myc tagged): PCPAPELLGGPSVFLFPPKPKDTLMISRTPEVTCVVVDVSHEDPEVKFNWYVDGVEVHNAKTKPREEQYNSTYRVVSVLTVLHQDWLNGKEYKCKVSNKALPAPIEKTISKAKGQPREPQVYTLPPSRDELTKNQVSLTCLVKGFYPSDIAVEWESYGTEWSSYKTTPPVLDSDGSFFLYSKLTVTKSEWQQGFVFSCSVMHEALHNHYTQKSLSLSPGK
With B12, the binding result in experiment [1] and in experiment [2] was “binds” in each case.
